Marks after values point to notes of the source that are not given here. Blank lines part the entries; values can stand above or below the molecule they belong to.
What was measured:
[1] = biological target: T1, bovine pancreatic trypsin (Bos taurus, UniProt P00760); assay: Shake flask screen: trypsin inhibition after growth, 2-mercaptoethanol activation and acid/heat treatment; format: biochemical; conditions: for BBIt-AV yield after acid/heat treatment relative to unmodified BBIt-AV: activated with 2-mercaptoethanol
T1 construct: purchased Worthington (Worthington Biochemical Corp.)
T1 sequence (P00760 24-246): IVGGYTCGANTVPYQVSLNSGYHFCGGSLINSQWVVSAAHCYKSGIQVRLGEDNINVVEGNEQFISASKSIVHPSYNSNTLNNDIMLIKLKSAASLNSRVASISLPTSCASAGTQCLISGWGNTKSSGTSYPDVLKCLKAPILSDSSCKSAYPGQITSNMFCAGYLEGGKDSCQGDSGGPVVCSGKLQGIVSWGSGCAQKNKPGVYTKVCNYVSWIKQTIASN
Method: To increase expression, the gene copy of the selected clones was amplified by sequentially streaking colonies on Luria agar plates with 25 μg/ml chloramphenicol until the growth rate was similar to growth on Luria agar plates without chloramphenicol. Cultures of the selected variants and controls were grown in 3 ml Luria broth with 25 μg/ml chloramphenicol in 15 ml tubes for ˜10 h. These cultures (30 μl) were then used to inoculate 30 ml of MBD medium in 250 ml baffled shake flasks and grown at 37° C. and 225 rpm for ˜60 h.
For selection of the variants with the best yields, the culture broths were processed as follows. The broth was first activated by mixing 20 ml of broth with 20 ml of 0.25 M glycine buffer (pH 9.3) and the pH was adjusted to 9.0 with 50% NaOH. Then, 2-mercaptoethanol was added to the diluted cultures to a final concentration of 2 mM and the cultures were incubated overnight at room temperature with gentle shaking. The BBIt-AV moiety was then cleaved from the fusion protein by acid/heat treatment, which was accomplished by first adjusting the pH of the activated broth to pH 1.9-2.0 with sulfuric acid, and followed by incubation at 60° C. for 16 hours, with shaking. The BBIt-AV-BCE fusion protein and the BCE catalytic domain are not soluble at pH 2, whereas the free BBI species is soluble. After the cleavage reaction, the insoluble material was removed by centrifugation (5 min. at 3,000 rpm) and the supernatant was analyzed for trypsin inhibitory activity as described above. The BBI activity was also determined for the starting material and for the samples taken after activation. The BCE activity of the starting material was also determined as described above. The BBIt-AV:BCE activity ratios were then calculated for each step in process. The modified BBIt-AVs produced at the highest yields following the acid/heat treatment were selected for further study.

[2] = biological target: T1, bovine pancreatic trypsin; assay: BBIt-AV:BCE activity ratio, microtiter plate screens (primary, quadruplicate secondary); format: biochemical; conditions: single substitution in BBIt-AV, in the presence of reducing agent
Method: The cultures in each master plate were thawed and a pin replicator was used to inoculate a new sterile microtiter plate containing 150 μl of Luria broth with 5 μg/ml chloramphenicol in each well. The plates were grown for ˜10 hrs in a humidified and aerated box as described above. For controls, the cultures in two wells were replaced with BBI and BBI-AV cultures that had been grown concurrently in 15 ml culture tubes (5 ml of Luria broth with 5 μg/ml chloramphenicol). After the cultures were grown, the plate was used to inoculate two duplicate 96-well filter plates (Millipore, MSGV2210) containing 150 μl of MBD medium (Vogtentanz et al., 2007) with 5 μg/ml chloramphenicol in each well by using a pin replicator. The duplicate plates were grown for ˜14 hours (as above, with plastic spacers placed between the stacked plates to allow for efficient air flow around the plates) and then 2-mecaptoethanol was added to each well in one of the plates to a final concentration of 2 mM. The plates were then grown for an additional ˜46 hours. The 96-well filter plates containing the culture broth (with or without added 2-mecaptoethanol) were then assayed for BBI and BCE activity.
Libraries were analyzed using dilutions of cultures grown in 96-well plates. Typically, the culture broth from each well was diluted (200 fold) in Assay Buffer (100 mM Tris pH 8.6, 0.005% Tween 80) and transferred to a second microtiter plate (CoStar 9017, Corning, Inc., Corning, N.Y.). Then, 20 μl of the diluted samples were transferred to a third microtiter plate. A standard curve was created by adding 20, 10, 5 or 2.5 μl of the diluted sBBI (SEQ ID NO:13) control culture to empty wells. Then, 80 μL of 50 ng/ml trypsin (bovine pancreatic trypsin, Worthington Biochemical Corp., Lakewood, N.J.) (prepared from a 1 mg/mL stock solution diluted into Assay Buffer) was added to each well of the plate. The reactions were mixed and incubated 15 min at room temperature. After the incubation, 100 μL of 0.5 mg/ml trypsin substrate (succinyl-Ala-Ala-Pro-Arg-para-nitroanilide, Bachem Bioscience, Inc., King of Prussia, Pa.), diluted in Assay Buffer from a 100 mg/ml solution in DMSO, was added to each well, mixed, and the absorbance at 405 nm was monitored for 15 min, with 1 time point recorded every 12 sec using a Spectra Max 250 (Molecular Devices). The data points were used to determine the rate for each reaction. The standard curve was generated by plotting the reaction rate versus the BBI volume and was fitted to a four-parameter equation. All data fitting was done using software supplied by the manufacturer (Molecular Devices Corp., Sunnyvale, Calif.). The activity of each BBIt-AV variant was calculated from the standard curve. Thus, the activities of all modified variant proteins were determined relative to the activity in the sBBI control (BBI-WT) culture.
The concentration of BCE was determined by an activity assay using purified BCE as a standard as described above and by (Vogtentanz et al. 2007). For the analysis of libraries grown in 96-well microtiter plates, 20 μl of culture broth were transferred to each well of a new microtiter plate. A standard curve was created by adding 20, 10, 5 or 2.5 μl of the diluted BBI-WT control culture to these empty wells. Then, 180 μl of the BCE substrate (0.25 μg/ml in Assay Buffer), 4-nitrophenyl β-D-cellobioside (Sigma, St. Louis, Mo.), was added to the plate. The plate was mixed and the absorbance at 405 nm monitored for 15 min, with 1 time point recorded every 12 s using a Spectra Max 250 (Molecular Devices Corp., Sunnyvale, Calif.). The data points were used to determine the rate for each reaction. The standard curve was generated by plotting rate versus culture volume and was fit to a quadratic curve. The BCE concentration in each variant culture was determined relative to the standard control culture. […]

yield after acid/heat treatment, better than V52L [1]: about 40% | activation level (BBIt-AV:BCE activity ratio after reducing agent) ([1]; single substitutions in BBIt-AV): activate to similar levels
B1: M27A: BBIt-AV (SEQ ID NO:187) with single substitution M27A (protein)
chain: DDESSKPCCDQCACTKSNPPQCRCSDARLNSCHSACKSCACYNLYGWTCFCVDITDFCYEPCKPSE
modifications: synthetic BBIt-AV sequence

B2: S4V: BBIt-AV (SEQ ID NO:187) with single substitution S4V (protein)
chain: DDEVSKPCCDQCACTKSNPPQCRCSDMRLNSCHSACKSCACYNLYGWTCFCVDITDFCYEPCKPSE
modifications: synthetic BBIt-AV sequence
BBIt-AV yield after acid/heat treatment relative to unmodified BBIt-AV [1]: improved yields after acid/heat treatment

B3: Q11G: BBIt-AV (SEQ ID NO:187) with single substitution Q11G (protein)
chain: DDESSKPCCDGCACTKSNPPQCRCSDMRLNSCHSACKSCACYNLYGWTCFCVDITDFCYEPCKPSE
modifications: synthetic BBIt-AV sequence
BBIt-AV yield after acid/heat treatment relative to unmodified BBIt-AV [1]: improved yields after acid/heat treatment

B4: S65E: BBIt-AV (SEQ ID NO:187) with single substitution S65E (protein)
chain: DDESSKPCCDQCACTKSNPPQCRCSDMRLNSCHSACKSCACYNLYGWTCFCVDITDFCYEPCKPEE
modifications: synthetic BBIt-AV sequence
BBIt-AV yield after acid/heat treatment relative to unmodified BBIt-AV [1]: improved yields after acid/heat treatment

B5: I54M: BBIt-AV (SEQ ID NO:187) with single substitution I54M (protein)
chain: DDESSKPCCDQCACTKSNPPQCRCSDMRLNSCHSACKSCACYNLYGWTCFCVDMTDFCYEPCKPSE
modifications: synthetic BBIt-AV sequence
relative activity of the amino acid substitution (BBI:BCE activity ratio vs BBIt-AV), amino acid present in BBIdb-AV [2]: M (−)

B6: S38N: BBIt-AV (SEQ ID NO:187) with single substitution S38N (protein)
chain: DDESSKPCCDQCACTKSNPPQCRCSDMRLNSCHSACKNCACYNLYGWTCFCVDITDFCYEPCKPSE
modifications: synthetic BBIt-AV sequence
BBIt-AV yield after acid/heat treatment relative to unmodified BBIt-AV [1]: improved yields after acid/heat treatment

B7: F50V: BBIt-AV (SEQ ID NO:187) with single substitution F50V (protein)
chain: DDESSKPCCDQCACTKSNPPQCRCSDMRLNSCHSACKSCACYNLYGWTCVCVDITDFCYEPCKPSE
modifications: synthetic BBIt-AV sequence
relative activity of the amino acid substitution (BBI:BCE activity ratio vs BBIt-AV), amino acid present in BBIdb-AV [2]: V (+)

B8: I54T: BBIt-AV (SEQ ID NO:187) with single substitution I54T (protein)
chain: DDESSKPCCDQCACTKSNPPQCRCSDMRLNSCHSACKSCACYNLYGWTCFCVDTTDFCYEPCKPSE
modifications: synthetic BBIt-AV sequence
relative activity of the amino acid substitution (BBI:BCE activity ratio vs BBIt-AV), amino acid present in BBIsb3-AV [2]: T (−)****

B9: E60K: BBIt-AV (SEQ ID NO:187) with single substitution E60K (protein)
chain: DDESSKPCCDQCACTKSNPPQCRCSDMRLNSCHSACKSCACYNLYGWTCFCVDITDFCYKPCKPSE
modifications: synthetic BBIt-AV sequence
relative activity of the amino acid substitution (BBI:BCE activity ratio vs BBIt-AV), amino acid present in BBIsb3-AV [2]: K (+/−) | relative activity of the amino acid substitution (BBI:BCE activity ratio vs BBIt-AV), amino acid present in BBItc-AV [2]: K (+/−)

B10: T55K: BBIt-AV (SEQ ID NO:187) with single substitution T55K (protein)
chain: DDESSKPCCDQCACTKSNPPQCRCSDMRLNSCHSACKSCACYNLYGWTCFCVDIKDFCYEPCKPSE
modifications: synthetic BBIt-AV sequence
relative activity of the amino acid substitution (BBI:BCE activity ratio vs BBIt-AV), amino acid present in BBIdb-AV [2]: K (−)

B11: T55N: BBIt-AV (SEQ ID NO:187) with single substitution T55N (protein)
chain: DDESSKPCCDQCACTKSNPPQCRCSDMRLNSCHSACKSCACYNLYGWTCFCVDINDFCYEPCKPSE
modifications: synthetic BBIt-AV sequence
relative activity of the amino acid substitution (BBI:BCE activity ratio vs BBIt-AV), amino acid present in BBIsb3-AV [2]: N (+/−)

B12: S5P: BBIt-AV (SEQ ID NO:187) with single substitution S5P (protein)
chain: DDESPKPCCDQCACTKSNPPQCRCSDMRLNSCHSACKSCACYNLYGWTCFCVDITDFCYEPCKPSE
modifications: synthetic BBIt-AV sequence
BBIt-AV yield after acid/heat treatment relative to unmodified BBIt-AV [1]: improved yields after acid/heat treatment

B13: V52F: BBIt-AV (SEQ ID NO:187) with single substitution V52F (protein)
chain: DDESSKPCCDQCACTKSNPPQCRCSDMRLNSCHSACKSCACYNLYGWTCFCFDITDFCYEPCKPSE
modifications: synthetic BBIt-AV sequence
relative activity of the amino acid substitution (BBI:BCE activity ratio vs BBIt-AV), amino acid present in BBItc-AV [2]: F (+/−)

B14: K37S: BBIt-AV (SEQ ID NO:187) with single substitution K37S (protein)
chain: DDESSKPCCDQCACTKSNPPQCRCSDMRLNSCHSACSSCACYNLYGWTCFCVDITDFCYEPCKPSE
modifications: synthetic BBIt-AV sequence
relative activity of the amino acid substitution (BBI:BCE activity ratio vs BBIt-AV), amino acid present in BBIdb-AV [2]: S (+/−)
